Measured values published in patent US20100093014A1, “SCREENING FOR BONE ANABOLIC FACTORS” (NORDIC BIOSCIENCE IMAGING A/S, priority 2007, published 2010).

B1: DKK1: Wnt inhibitor (protein, UniProt O94907 32-266, looked up)
Dickkopf-related protein 1: TLNSVLNSNAIKNLPPPLGGAAGHPGSAVSAAPGILYPGGNKYQTIDNYQPYPCAEDEECGTDEYCASPTRGGDAGVQICLACRKRRKRCMRHAMCCPGNYCKNGICVSSDQNHFRGEIEETITESFGNDHSTLDGYSRRTTLSSKMYHTKGQEGSVCLRSSDCASGLCCARHFWSKICKPVLKEGQVCTKHRRKGSHGLEIFQRCYCGEGLSCRIQKDHHQASNSSRLHTCQRH
B2: Wnt3A: positive control for the TCF/LEF luciferase reporter (protein, UniProt P56704 19-352, looked up)
Protein Wnt-3a: SYPIWWSLAVGPQYSSLGSQPILCASIPGLVPKQLRFCRNYVEIMPSVAEGIKIGIQECQHQFRGRRWNCTTVHDSLAIFGPVLDKATRESAFVHAIASAGVAFAVTRSCAEGTAAICGCSSRHQGSPGKGWKWGGCSEDIEFGGMVSREFADARENRPDARSAMNRHNNEAGRQAIASHMHLKCKCHGLSGSCEVKTCWWSQPDFRAIGDFLKDKYDSASEMVVEKHRESRGWVETLRPRYTYFKVPTERDLVYYEASPNFCEPNPETGSFGTRDRTCNVSSHGIDGCDLLCCGRGHNARAERRREKCRCVFHWCCYVSCQECTRVYDVHTCK

Test system: TCF/LEF response elements
Assay: TOPflash luciferase reporter system (TCF/LEF response elements) in UMR-106 cells
Type: cell-based, rat
Source text: We transiently infected UMR-106 cells (a rat sarcoma derived cell line) with a luciferase reporter system TOPflash containing 8 TCF/LEF response elements placed in the promoter region of the luciferase reporter gene.
To investigate the effect of secreted signals from osteoclasts we collected conditioned medium from osteoclasts cultured either on bone or on plastic, and compared their ability to induce activation of cells transiently transfected with the TCF/LEF reporter system to that of non-conditioned osteoclast culture medium. The cells were then treated for 24 hours with either control compounds, vehicle or the different conditioned media, after which the cells were lysed and the Luciferase activity was measured by a […] assay.

Molecule | inhibition of TCF/LEF activation induced by conditioned medium from osteoclasts on bone (24 hours) | inhibition of TCF/LEF activation induced by signal from non-resorbing osteoclasts on plastic (24 hours) | inhibition of Wnt3A-induced TCF/LEF activation (activation by Wnt3A) | TCF/LEF activation (luciferase activity) (treated for 24 hours)
B1 | inhibited | again was inhibited | inhibits this activation | –
B2 | – | – | – | induces a strong activation
